This note sets out measurements from paper PMC3834829, “A signature motif mediating selective interactions of BCL11A with the NR2E/F subfamily of orphan nuclear receptors” (Nucleic Acids Research, 2013).

Sequences and labels used below:
B1: LexA-BCL11A-(651–670) [not stated] / AAD-COUP-TFI-LBD-(151–467) [not stated] (parent complex)
chain 1: NTENVYSQWLAGYAASRQLK
chain 2: MRREAVQRGRMPPTQPNPGQYALTNGDPLNGHCYLSGYISLLLRAEPYPTSRYGSQCMQPNNIMGIENICELAARLLFSAVEWARNIPFFPDLQITDQVSLLRLTWSELFVLNAAQCSMPLHVAPLLAAAGLHASPMSADRVVAFMDHIRIFQEQVEKLKALHVDSAEYSCLKAIVLFTSDACGLSDAAHIESLQEKSQCALEEYVRSQYPNQPSRFGKLLLRLPSLRTVSSSVIEQLFFVRLVGKTPIETLIRDMLLSGSSFNWPYMSIQCS
B2: LexA-BCL11A-(310–325) [not stated] / AAD-PNR-LBD-(131–410) [not stated] (parent complex)
chain 1: PPAMDFSRRLRELAGN
chain 2: HLDSMESNTESRPESLVAPPAPAGRSPRGPTPMSAARALGHHFMASLITAETCAKLEPEDADENIDVTSNDPEFPSSPYSSSSPCGLDSIHETSARLLFMAVKWAKNLPVFSSLPFRDQVILLEEAWSELFLLGAIQWSLPLDSCPLLAPPEASAAGGAQGRLTLASMETRVLQETISRFRALAVDPTEFACMKALVLFKPETRGLKDPEHVEALQDQSQVMLSQHSKAHHPSQPVRFGKLLLLLPSLRFITAERIELLFFRKTIGNTPMEKLLCDMFKN
B3: LexA-BCL11A-(310–325) [not stated] / AAD-COUP-TFI-LBD-(151–467) [not stated] (parent complex)
chain 1: PPAMDFSRRLRELAGN
chain 2: B1 chain 2
B4: AAD-COUP-TFII-LBD-(144–414) [not stated] / LexA-BCL11A-(651–670) [not stated] (parent complex)
chain 1: MRREAVQRGRMPPTQPTHGQFALTNGDPLNCHSYLSGYISLLLRAEPYPTSRFGSQCMQPNNIMGIENICELAARMLFSAVEWARNIPFFPDLQITDQVALLRLTWSELFVLNAAQCSMPLHVAPLLAAAGLHASPMSADRVVAFMDHIRIFQEQVEKLKALHVDSAEYSCLKAIVLFTSDACGLSDVAHVESLQEKSQCALEEYVRSQYPNQPTRFGKLLLRLPSLRTVSSSVIEQLFFVRLVGKTPIETLIRDMLLSGSSFNWPYMAIQ
chain 2: NTENVYSQWLAGYAASRQLK
B5: AAD-COUP-TFII-LBD-(144–414) [not stated] / LexA-BCL11A-(310–325) [not stated] (parent complex)
chain 1: B4 chain 1
chain 2: PPAMDFSRRLRELAGN
B6: LexA-BCL11A-(651–670) [not stated] / AAD-EAR2-LBD-(121–399) [not stated] (parent complex)
chain 1: NTENVYSQWLAGYAASRQLK
chain 2: MRKEAVQRGRIPHSLPGAVAASSGSPPGSALAAVASGGDLFPGQPVSELIAQLLRAEPYPAAAGRFGAGGGAAGAVLGIDNVCELAARLLFSTVEWARHAPFFPELPVADQVALLRLSWSELFVLNAAQAALPLHTAPLLAAAGLHAAPMAAERAVAFMDQVRAFQEQVDKLGRLQVDSAEYGCLKAIALFTPDACGLSDPAHVESLQEKAQVALTEYVRAQYPSQPQRFGRLLLRLPALRAVPASLISQLFFMRLVGKTPIETLIRDMLLSGSTFNWP
B7: LexA-NSD1-(790–818) [not stated] / AAD-ERα-LBD-(282–595) [not stated] (parent complex)
chain 1: SSQNHIPIEPDYKFSTLLMMLKDMHDSKT
chain 2: SAGDMRAANLWPSPLMIKRSKKNSLALSLTADQMVSALLDAEPPILYSEYDPTRPFSEASMMGLLTNLADRELVHMINWAKRVPGFVDLTLHDQVHLLECAWLEILMIGLVWRSMEHPGKLLFAPNLLLDRNQGKCVEGMVEIFDMLLATSSRFRMMNLQGEEFVCLKSIILLNSGVYTFLSSTLKSLEEKDHIHRVLDKITDTLIHLMAKAGLTLQQQHQRLAQLLLILSHIRHMSNKGMEHLYSMKCKNVVPLYDLLLEMLDAHRLHAPTSRGGASVEETDQSHLATAGSTSSHSLQKYYITGEAEGFPATV
B8: LexA-BCL11A-(310–325) [not stated] / AAD-EAR2-LBD-(121–399) [not stated] (parent complex)
chain 1: PPAMDFSRRLRELAGN
chain 2: B6 chain 2

The first experiment covers variants of B1. Put plainly: yeast two-hybrid; read off a plot.
For the variant chain 1 S7A, the response was about 0 nmol/mg/min.
Same read-out and setting: the same measure for chain 1 G12A: about 2300 nmol/mg/min.
Consider chain 1 V5A, for which the response is about 220 nmol/mg/min.
Regarding chain 1 Y13A, the response is about 0 nmol/mg/min.
Take chain 1 Q8A: the response is about 920 nmol/mg/min.
In the case of chain 1 L10A, the response was about 0 nmol/mg/min.
chain 1 W9A: the response is about 0 nmol/mg/min.
On the same count and under the same terms, the same measure for chain 1 Y6A: about 50 nmol/mg/min.

A further experiment covers variants of B2. Put plainly: yeast two-hybrid; read off a plot.
As to chain 1 R8A, the response is about 0 nmol/mg/min.
chain 1 S7A: the response was about 2500 nmol/mg/min.
On to chain 1 F6A, for which the response was about 0 nmol/mg/min.
As to chain 1 L13A, the response is about 0 nmol/mg/min.
The same measure, in the same setting: the same measure for chain 1 R11A: about 0 nmol/mg/min.
As to chain 1 L10A, the response was about 0 nmol/mg/min.

Variants of B3 are the subject of a further experiment. The experiment in a line: yeast two-hybrid; read off a plot.
With chain 1 S7A, the response was about 100 nmol/mg/min.
For the variant chain 1 L10A, the response is about 0 nmol/mg/min.
On the same count and under the same terms, with chain 1 R8A the figure was about 900 nmol/mg/min; with chain 1 L13A, about 0 nmol/mg/min.
On the same count and under the same terms, the same measure for chain 1 R11A: about 670 nmol/mg/min; for chain 1 F6A: about 0 nmol/mg/min.

The next experiment covers variants of B4. Put plainly: yeast two-hybrid; read off a plot.
As for chain 1 F78A, the response was about 40 nmol/mg/min.
The same measure, in the same setting: with chain 1 V99A the figure was about 2700 nmol/mg/min; with chain 1 I95A, about 2900 nmol/mg/min; with chain 1 R103A, about 1900 nmol/mg/min.
Still for that read-out and setting: the same measure for chain 1 R85A: about 1200 nmol/mg/min; for chain 1 V81A: about 20 nmol/mg/min.

The next experiment covers variants of B5. The experiment in a line: yeast two-hybrid; read off a plot.
Regarding chain 1 V81A, the response was about 960 nmol/mg/min.
On the same count and under the same terms, with chain 1 I95A the figure was about 850 nmol/mg/min; with chain 1 F78A, about 0 nmol/mg/min.
Still for that read-out and setting: with chain 1 V99A the figure was about 640 nmol/mg/min.
The same measure, in the same setting: with chain 1 R103A the figure was about 330 nmol/mg/min.
Consider chain 1 R85A, for which the response is about 2100 nmol/mg/min.

The variants in another experiment derive from B6. Put plainly: yeast two-hybrid; read off a plot.
chain 1 V5A: the response was about 190 nmol/mg/min.
On to chain 1 W9A, for which the response is about 130 nmol/mg/min.
Still for that read-out and setting: the same measure for chain 1 Q8A: about 900 nmol/mg/min; for chain 1 S7A: about 910 nmol/mg/min; for chain 1 Y6A: about 840 nmol/mg/min.
Turning to chain 1 G12A, the response was about 1800 nmol/mg/min.
Same read-out and setting: the same measure for chain 1 Y13A: about 0 nmol/mg/min; for chain 1 L10A: about 0 nmol/mg/min.

A further experiment covers variants of B7. Put plainly: yeast two-hybrid; + 1µM E2; read off a plot.
With chain 1 L21A, the response is about 0 nmol/mg/min.
The same measure, in the same setting: with chain 1 K22A the figure was about 2500 nmol/mg/min; with chain 1 Y12A, about 2000 nmol/mg/min.
chain 1 L18A: the response is about 1800 nmol/mg/min.
Same read-out and setting: the same measure for chain 1 F14A: about 2400 nmol/mg/min; for chain 1 M19A: about 2700 nmol/mg/min.
In the case of chain 1 K13A, the response is about 2100 nmol/mg/min.
For the variant chain 1 M20A, the response is about 0 nmol/mg/min.
Same read-out and setting: with chain 1 L17A the figure was about 0 nmol/mg/min; with chain 1 S15A, about 0 nmol/mg/min.
The same measure, in the same setting: with chain 1 D23A the figure was about 1700 nmol/mg/min.

The variants in another experiment derive from B8. Put plainly: yeast two-hybrid; read off a plot.
As to chain 1 L10A, the response is about 0 nmol/mg/min.
On to chain 1 R8A, for which the response was about 1000 nmol/mg/min.
chain 1 R11A: the response was about 1300 nmol/mg/min.
With chain 1 L13A, the response was about 0 nmol/mg/min.
For the variant chain 1 S7A, the response was about 160 nmol/mg/min.
